According to patent US20190359683A1 (published 2019):
Like-named read-outs stand apart in the source and are kept apart here. Each block holds one binder with its values, some of them ahead of it.

Tests used:
[1] = biological target: 1; test: yeast display binding; apparent Kd
[2] = biological target: 2; test: yeast display binding; apparent Kd
[3] = biological target: 5; test: yeast display binding; apparent Kd
[4] = biological target: 3; test: yeast display binding; apparent Kd
[5] = biological target: T1, recombinant human cardiotrophin-like cytokine factor 1 (CLCF1) (human, UniProt Q9UBD9 28-225)
T1 chain: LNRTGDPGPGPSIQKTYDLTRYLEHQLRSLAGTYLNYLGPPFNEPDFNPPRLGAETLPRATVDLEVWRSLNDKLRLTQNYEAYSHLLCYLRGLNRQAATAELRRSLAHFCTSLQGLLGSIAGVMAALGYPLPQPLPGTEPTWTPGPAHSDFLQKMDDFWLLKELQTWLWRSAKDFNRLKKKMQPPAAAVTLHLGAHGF

[6] = biological target: T1, recombinant human cardiotrophin-like …
[7] = biological target: T1, recombinant human cardiotrophin-like …; test: ELISA

B1: CLCF1 (ligand)
chain: LNRTGDPGPGPSIQKTYDLTRYLEHQLRSLAGTYLNYLGPPFNEPDFNPPRLGAETLPRATVDLEVWRSLNDKLRLTQNYEAYSHLLCYLRGLNRQAATAELRRSLAHFCTSLQGLLGSIAGVMAALGYPLPQPLPGTEPTWTPGPAHSDFLQKMDDFWLLKELQTWLWRSAKDFNRLKKKMQPPAAAVTLHLGAHGF
Kd [1]: 4100 nM
Kd [2]: 890 nM
Kd [3]: 740 nM
Kd [4]: 49 nM

B4: eCNTFR-HIS (soluble engineered CNTFR with His-tag) (receptor)
chain: QRHSPQEAPHVQYERLGSDVTLPCGTANWDAAVTWRVNGTDLAPDLLNGSQLVLHGLELGHSGLYACFHRDSWHLRHQVLLHVGLPPQEPVLSCRSNTYPKGFYCSWHLPTPTYIPNTFNVTVLHGSKIMVCEKDPALKNRCHIRYMHLFSPIKHNVSISVSNALGHNATAITFDEFTIVKPDPPENVVARPVPSNPRRLEVTWQTPSTWPDPEFFPLKFFLRYRPLILDQWQHVELSDGTAHTIAAAYAGKEYIIQVAAKDNEFGTWSDWSVAAHATPWTEEPRHLTTEAQAAETTTSTTSSLAPPPTTKICDPGELGS
Kd [7]: 0.075 nM

More lines, now with the values ahead:

Kd [5]: 19 nM
Kd [6]: 0.019 nM
B2: yeast-displayed CNTFR variant 4 (R110Q, T174P, S237F, I287F) (protein)
chain: VYAQRHSPQEAPHVQYERLGSDVTLPCGTANWDAAVTWRVNGTDLAPDLLNGSQLVLHGLELGHSGLYACFHRDSWHLRHQVLLHVGLPPQEPVLSCRSNTYPKGFYCSWHLPTPTYIPNTFNVTVLHGSKIMVCEKDPALKNRCHIRYMHLFSPIKYKVSISVSNALGHNATAITFDEFTIVKPDPPENVVARPVPSNPRRLEVTWQTPSTWPDPEFFPLKFFLRYRPLILDQWQHVELSDGTAHTITDAYAGKEYIIQVAAKDNEFGTWSDWSVAAHATPWTEEPRHLTTEAQAAETTTSTTSSLAPPPTTKICDPGELGS

Kd [7]: 0.063 nM
B3: eCNTFR-Fc (soluble engineered CNTFR fused to mouse IgG2a Fc) (Fc fusion)
chain: QRHSPQEAPHVQYERLGSDVTLPCGTANWDAAVTWRVNGTDLAPDLLNGSQLVLHGLELGHSGLYACFHRDSWHLRHQVLLHVGLPPQEPVLSCRSNTYPKGFYCSWHLPTPTYIPNTFNVTVLHGSKIMVCEKDPALKNRCHIRYMHLFSPIKHNVSISVSNALGHNATAITFDEFTIVKPDPPENVVARPVPSNPRRLEVTWQTPSTWPDPEFFPLKFFLRYRPLILDQWQHVELSDGTAHTIAAAYAGKEYIIQVAAKDNEFGTWSDWSVAAHATPWTEEPRHLTTEAQAAETTTSTTSSLAPPPTTKICDPGELGSRRLEPRGPTIKPCPPCKCPAPNLLGGPSVFIFPPKIKDVLMISLSPIVTCVVVDVSEDDPDVQISWFVNNVEVHTAQTQTHREDYNSTLRVVSALPIQHQDWMSGKEFKCKVNNKDLPAPIERTISKPKGSVRAPQVYVLPPPEEEMTKKQVTLTCMVTDFMPEDIYVEWTNNGKTELNYKNTEPVLDSDGSYFMYSKLRVEKKNWVERNSYSCSVVHEGLHNHHTTKSFSRTPGK
